In experiment [1] the target is T1, soluble mouse GPNMB-Fc polypeptide (mouse IgG2A Fc) (mouse, UniProt Q99P91 23-502).
T1 construct: extracellular domain; bought (R&D System); also called moGPNMB-Fc; mGPNMB-Fc; not shown: Fc region of mouse IgG2A
T1 sequence (looked up): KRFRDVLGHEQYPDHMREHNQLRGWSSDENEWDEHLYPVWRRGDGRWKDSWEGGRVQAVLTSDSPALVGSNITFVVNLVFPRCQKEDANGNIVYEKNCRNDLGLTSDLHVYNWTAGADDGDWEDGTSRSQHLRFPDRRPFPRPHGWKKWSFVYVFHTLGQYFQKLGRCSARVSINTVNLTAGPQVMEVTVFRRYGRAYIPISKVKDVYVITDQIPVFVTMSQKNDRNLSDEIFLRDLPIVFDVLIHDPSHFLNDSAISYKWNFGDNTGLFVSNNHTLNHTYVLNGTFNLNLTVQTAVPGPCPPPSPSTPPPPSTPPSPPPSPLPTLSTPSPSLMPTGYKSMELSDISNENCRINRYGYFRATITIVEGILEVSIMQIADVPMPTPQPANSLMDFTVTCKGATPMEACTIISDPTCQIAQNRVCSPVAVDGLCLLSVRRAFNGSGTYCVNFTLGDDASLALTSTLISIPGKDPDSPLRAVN
Put plainly: FACS, enhancing of moGPNMB-Fc binding to SVEC4-10 cells. The method, then:
Purified full-length anti-GPNMB antibodies of the present disclosure were evaluated for their ability to block binding of moGPNMB-Fc to SVEC4-10 cells to determine the ligand blocking potency of each anti-GPNMB monoclonal antibody. Briefly, 2 μg/mL moGPNMB-Fc (mouse IgG2A Fc) diluted in binding buffer was pre-complexed with increasing concentrations of anti-GPNMB antibody of the present disclosure or human IgG1 isotype control antibody in 96-well plates. Subsequently, 100,000 SVEC4-10 cells were added per well and incubated on ice for 30 minutes. Soluble moGPNMB-Fc bound to cell surface was detected with fluorescent anti-mouse IgG2A secondary antibody and measured on FACSCanto. (FIG. 5A and FIG. 5B) IC50 values (for antibodies that block moGPNMB-Fc cell binding) and EC50 values (for antibodies that enhance moGPNMB-Fc cell binding) based on changes in MFI values were calculated (average+standard error) for each anti-GPNMB antibody and listed in Table 6. In Table 6, NA indicates no activity. […] In all cases, certain anti-GPNMB antibodies of the present disclosure blocked soluble GPNMB binding to cells, while other anti-GPNMB antibodies of the present disclosure enhanced soluble GPNMB binding to cells.
A general note: In flow cytometry, cells or beads pass a laser one at a time.

The target in experiment [2] is T2, soluble mouse GPNMB (recombinant extracellular domain) (mouse, UniProt Q99P91 23-502).
T2 construct: also called moGPNMB; not shown: C-terminal polyhistidine or Avi-His tag
T2 sequence: T1 sequence (looked up)
Put plainly: SPR Carterra, Ab immobilized. As for the experimental part: Binding kinetics of human anti-GPNMB IgG1 antibodies of the present disclosure to human, cynomolgus, and mouse GPNMB were evaluated using a Carterra LSA instrument (Carterra, Salt Lake City, UT). […] A HC200M sensor chip (Carterra) was activated using the single channel flow cell with a 7-minute injection of a 1:1:1 mixture of 100 mM MES pH 5.5, 100 mM sulfo-NHS, 400 mM EDC (all reconstituted in MES pH 5.5; 100 μl of each mixed in vial immediately before running assay). After switching to the multi-channel array flow cell, the antibodies were injected over the activated chip in a 96-spot array for 15 minutes. The remaining unconjugated active groups on the chip were then blocked by injecting 1M Ethanolamine pH 8.5 (Carterra) for 7 minutes using the single channel flow cell.
After priming with running buffer (HBS-EP+, Teknova) with 0.5 mg/ml BSA (Sigma), the immobilized anti-GPNMB antibodies were tested for their ability to bind to several forms of recombinant GPNMB extracellular domain, including human, cynomolgus, and mouse orthologs as described above. Estimates of affinity were generated by injecting each analyte over the entire antibody array using the single channel flow cell. GPNMB analytes were diluted to 2.5, 7.4, 22, 67, 200, and 600 nM in running buffer, and injected in serial from lowest to highest concentration without regeneration. Two buffer blanks were run between each series (one species per series). Data were processed and analyzed using Kinetics high-throughput kinetics analysis software (Carterra).

The target of experiment [3] is T3, mouse GPNMB endogenously expressed on B16F10 cells (mouse, UniProt Q99P91 23-574).
T3 construct: whole, on cells; also called moGPNMB
T3 sequence (looked up): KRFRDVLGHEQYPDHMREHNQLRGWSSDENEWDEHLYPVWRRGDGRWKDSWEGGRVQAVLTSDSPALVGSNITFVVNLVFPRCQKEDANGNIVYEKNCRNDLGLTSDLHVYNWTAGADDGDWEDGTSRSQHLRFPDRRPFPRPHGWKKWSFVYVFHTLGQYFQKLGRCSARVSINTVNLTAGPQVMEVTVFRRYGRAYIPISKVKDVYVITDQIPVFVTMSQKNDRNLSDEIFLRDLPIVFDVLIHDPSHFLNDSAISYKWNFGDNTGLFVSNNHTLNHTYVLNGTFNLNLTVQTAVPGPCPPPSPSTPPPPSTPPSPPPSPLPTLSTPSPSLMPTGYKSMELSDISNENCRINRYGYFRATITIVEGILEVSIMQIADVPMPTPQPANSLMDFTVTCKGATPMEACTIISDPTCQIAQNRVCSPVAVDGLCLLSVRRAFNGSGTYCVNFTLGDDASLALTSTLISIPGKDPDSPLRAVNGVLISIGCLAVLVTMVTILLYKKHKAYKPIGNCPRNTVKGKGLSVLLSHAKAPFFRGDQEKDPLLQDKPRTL
Kind of experiment: FACS titration, B16F10 cells. The method, then: Cell-based binding measurements were also performed to measure the apparent affinities of anti-GPNMB antibodies of the present disclosure to cell-surface expressed GPNMB. Serial dilutions of the monoclonal anti-GPNMB antibodies were added to 100,000 Freestyle293-huGPNMB+ or B16F10 cells and allowed to achieve binding equilibrium at 4° C. After addition of fluorescently labeled secondary antibody and brief washing steps, MFI values as a function of titrated antibody concentration was recorded via FACS analysis. Curves were fit using nonlinear regression analysis with Graphpad Prism 6 software.

In experiment [4] the target is T3, mouse GPNMB endogenously expressed on …. Kind of experiment: FACS, B16F10 cells. The method, then:
Recombinant anti-GPNMB antibodies of the present disclosure were examined for their ability to bind human and/or mouse GPNMB expressed on Freestyle293-huGPNMB+ or B16F10 cells, respectively. B16F10 cells are a murine melanoma cell line from a C57BL/6J mouse that endogenously express high levels of mouse GPNMB. The antibodies were also tested for their ability to bind to a human macrophage cell line (U937 cells) engineered to express human GPNMB. Cells were harvested, plated at 100,000 cells/well in a 96-well round bottom plate, and incubated in 100 μl FACS buffer (PBS containing 2% FBS, 2 mM EDTA) containing anti-GPNMB monoclonal antibodies of the present disclosure for 30 minutes on ice. Cells were then washed and incubated in 100 ul FACS buffer containing 1 μg/ml APC-conjugated anti-human IgG secondary antibody for 30 minutes in ice. Cells were washed twice in cold FACS buffer and acquired on a BD FACS Canto. Data analysis and calculation of MFI values was performed with FlowJo (TreeStar) software version 10.0.7. […]

Experiment [5] concerns the target T4, soluble human GPNMB-Fc polypeptide (human, UniProt Q14956 23-498, limits assumed).
T4 construct: also called huGPNMB-Fc; not shown: Fc domain
T4 sequence (looked up): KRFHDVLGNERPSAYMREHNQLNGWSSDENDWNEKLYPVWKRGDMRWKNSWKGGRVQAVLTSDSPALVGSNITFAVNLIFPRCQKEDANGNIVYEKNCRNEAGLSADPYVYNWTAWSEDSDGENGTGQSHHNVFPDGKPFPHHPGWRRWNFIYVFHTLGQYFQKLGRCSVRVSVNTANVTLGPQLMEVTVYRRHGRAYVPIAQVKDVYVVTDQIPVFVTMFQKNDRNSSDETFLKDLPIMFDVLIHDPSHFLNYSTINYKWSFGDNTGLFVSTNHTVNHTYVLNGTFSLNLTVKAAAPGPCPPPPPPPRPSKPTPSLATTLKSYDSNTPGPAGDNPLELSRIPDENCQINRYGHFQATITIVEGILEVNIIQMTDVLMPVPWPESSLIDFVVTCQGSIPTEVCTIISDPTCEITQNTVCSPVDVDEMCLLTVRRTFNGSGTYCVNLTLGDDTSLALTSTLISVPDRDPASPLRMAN
Put plainly: FACS, Fab2 enhancing huGPNMB-Fc binding to SVEC4-10 cells. The method, then:
(§1) Purified recombinant Fab2 fragments of select anti-GPNMB antibodies of the present disclosure were produced through transient transfection and purified. Briefly, 2 ug/mL soluble mouse or human GPNMB-Fc diluted in binding buffer was pre-complexed with increasing concentrations of anti-GPNMB Fab2 fragments in 96-well plates. Subsequently, 100,000 SVEC4-10 cells were added per well and incubated on ice for 30 minutes. Soluble moGPNMB-Fc or huGPNMB-Fc bound to cell surface was detected with fluorescent anti-human IgG1 secondary antibody and measured on FACSCanto. IC50 and EC50 values based on changes in MFI values were calculated for each antibody.

Experiment [6] deals with T5, soluble mouse GPNMB-Fc polypeptide (Fc of human IgG1 or mouse IgG2A, not specified for the assay) (mouse, UniProt Q99P91 23-502).
T5 construct: extracellular domain; also called moGPNMB-Fc; mGPNMB; not shown: Fc region of human IgG1 or mouse IgG2A; in the Fab2 assay detected with anti-human IgG1 secondary antibody
T5 sequence (looked up): T1 sequence (looked up)
Kind of experiment: FACS, Fab2 blocking moGPNMB-Fc binding to SVEC4-10 cells. As for the experimental part:
as §1

In experiment [7] the target is T6, soluble cynomolgus GPNMB (recombinant extracellular domain) (cynomolgus, UniProt Q14956 23-499 (human entry), limits assumed).
T6 chain: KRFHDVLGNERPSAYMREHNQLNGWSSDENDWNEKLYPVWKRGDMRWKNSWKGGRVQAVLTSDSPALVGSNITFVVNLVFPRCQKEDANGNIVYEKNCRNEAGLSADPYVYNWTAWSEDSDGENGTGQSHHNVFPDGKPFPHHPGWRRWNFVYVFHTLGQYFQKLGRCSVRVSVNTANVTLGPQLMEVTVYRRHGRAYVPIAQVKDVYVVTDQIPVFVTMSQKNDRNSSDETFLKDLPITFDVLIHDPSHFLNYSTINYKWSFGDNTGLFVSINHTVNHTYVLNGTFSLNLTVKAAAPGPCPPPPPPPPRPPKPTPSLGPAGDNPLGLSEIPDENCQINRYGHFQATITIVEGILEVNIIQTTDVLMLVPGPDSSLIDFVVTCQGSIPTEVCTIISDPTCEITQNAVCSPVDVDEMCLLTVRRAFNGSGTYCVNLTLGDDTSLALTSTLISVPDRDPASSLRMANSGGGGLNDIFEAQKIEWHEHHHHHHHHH
Put plainly: SPR Carterra, Ab amine-coupled. As for the experimental part:
(§2) Additionally, one of the anti-GPNMB antibodies of the present disclosure was evaluated using a Carterra LSA instrument (Carterra, Salt Lake City, UT). Briefly, the anti-GPNMB antibody was immobilized in duplicate spots onto an HC30M sensor chip (Carterra) by amine coupling according to the instrument manufacturer's recommended protocol. After priming with running buffer (see above) the immobilized antibody was tested for its ability to bind to recombinant human, cynomolgus, and mouse GPNMB. Analytes were diluted to 600 nM in running buffer, then further diluted 3-fold serially to 200 nM, 67 nM, 22.2 nM, 7.4 nM, and 2.5 nM. Analyte at each concentration was injected for five minutes over the entire chip using the single channel flow cell. Dissociation was measured for 5 min, followed by regeneration of the chip with two 30-second injections of 10 mM glycine, pH 2.0. The data were analyzed using the NextGenKIT high-throughput kinetics analysis software from Carterra.

For experiment [8], the target named is T7, soluble human GPNMB (recombinant extracellular domain) (human, UniProt Q14956 23-498).
T7 construct: also called huGPNMB; recombinant human GPNMB extracellular domain; not shown: C-terminal polyhistidine or Avi-His tag
T7 sequence: T4 sequence (looked up)
Kind of experiment: SPR Carterra, Ab amine-coupled. As for the experimental part: as §2

The target of experiment [9] is T2, soluble mouse GPNMB (recombinant …). Kind of experiment: SPR Carterra, Ab amine-coupled. The method, then:
as §2

Experimental findings from patent US20250270343A1 (Alector, published 2025) are described below.

B1: anti-GPNMB antibody GPN-33 (antibody, human IgG1, V domains shown)
VH: EVQLVESGGSLVQPGGSLKLSCVASGYTFSNYWMDWVRQTPGKSLEWIGEINTDGSKTNYAPSIKDRFTISRDNAKSTLYLQMSNVKADDTAIYYCTRGPGAWGQGTSVTVSS
VL: DIVMTQTPLSLSVAIGQSASISCKSSQSLKFSDGKTYLNWVFQSPGQSPKRLIYQVSKLDSGVPDRFSGTGSETDFILKISRVEAEDLGVYYCCQGSYSPWTIGGGTKLELK
notes: chimeric
For the molecule B1, the EC50 in experiment [1] was 0.79 nM. In experiment [2], the Kd was less than 0.3 nM, the koff is less than 1e-05 s⁻¹ and the kon was 40000 M⁻¹ s⁻¹. Moreover, it took 17.8 nM to reach a half-maximal effect in experiment [3] (EC50). Further, the “MFI fold over background” value in [4] amounted to 20.9 fold.

B2: recombinant Fab2 fragment of anti-GPNMB antibody GPN-61 (other)
VH: DVQLQESGPGLVKPSQTVFLTCTVTGISITTGNYRWSWIRQFPGNKLEWIGYIYYSGTITYNPSLTSRTTITRDTPKNQFFLEMSSLTAEDTATYFCARDLRHWYFDVWGTGTTVTVSS
VL: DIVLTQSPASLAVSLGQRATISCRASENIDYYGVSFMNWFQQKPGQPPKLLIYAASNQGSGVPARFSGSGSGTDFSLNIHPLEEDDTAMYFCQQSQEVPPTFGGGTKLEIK
notes: also called GPN-61 Fab2
Consider B2, for which, in [5], the EC50 came out at 9.05 nM. The molecule further yielded an IC50 in experiment [6] of 1.56 nM.

B3: anti-GPNMB antibody GPN-81 (antibody, V domains shown)
VH: QVQLQESGPGLVKPSETLSLTCTVSGISITTGNYRWSWIRQPPGKGLEWIGYIYYSGTITYNPSLKSRVTITRDTSKNQFSLELSSVTAADTAVYYCARDLTHWYFDVWGQGTLVTVSS
VL: DIVMTQSPDSLAVSLGERATINCKSSESVDYYGIGFLNWYQQKPGQPPKLLIYAASTQGSGVPDRFSGSGSGTDFTLTISSLQAEDVAVYYCQQSKEVPPTFGGGTKVEIK
notes: humanized GPN-52
Consider B3, for which, in experiment [7], the dissociation constant Kd was determined as 107 nM, the koff was 0.01 s⁻¹ and the association rate constant (kon) was 97000 M⁻¹ s⁻¹. Moreover, in [8], the Kd stood at 135 nM, the koff amounted to 0.0098 s⁻¹ and the kon turned out to be 76000 M⁻¹ s⁻¹. In addition, in experiment [9], the Kd was determined as 12 nM, the koff was 0.0019 s⁻¹ and the kon turned out to be 180000 M⁻¹ s⁻¹.

For orientation: EC50 means the midpoint of the concentration-response curve. For orientation: Kd means the concentration at which binding is half-saturated. A word on the koff: it is the rate constant with which the complex falls apart. In general, kon refers to a measure of how fast the partners come together. The IC50 is the concentration needed to halve the response being measured. Higher therefore signals lower potency.
